Molecular target: cp283Δ8, cp283 with an eight-amino acid deletion in the loop connecting the native termini (Candida antarctica)
Assay: SEC

A stoichiometry N of 3 was found for “cp283Δ8, cp283 with an eight-amino acid deletion in the loop connecting the native termini (enzyme)” in this work.
